According to the nanobody polyreactivity screen of Harvey et al. (2022):

Experiment: yeast display, Sf9 membrane polyspecificity reagent, FACS + sequencing; frameworks hold sequencing errors
Summary of the method: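 Nanobodies came from a synthetic yeast display library in Saccharomyces cerevisiae BJ5465, induced with galactose for 36–48 hours and stained for 1 hour at 4 °C with 10% biotinylated, detergent-solubilized Sf9 membrane reagent. Cells were enriched on streptavidin microbeads and then FACS-sorted, with low and high (top ~1%) gates set on anti-HA fluorescence for expression and streptavidin fluorescence for reagent binding. Each polyreactivity label reflects the gate a clone came from. Genes were amplified by colony PCR, sequenced by MiSeq 2 × 250 and filtered by CDR length.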

Sequence	polyreactivity (PSR sort gate)
QVQLVESGGGLVQAGGSLRLSCAASGFTFFLNAMGWYRQAPGKERELVAAINRSGGSTYYADSVKGRFTISRDNAKNTVYLQMNSLKPEDTAVYYCATYSFWHYAYDYWGQGTQVTVSS	low polyreactivity
QVQLVESGGGLVQAGGSLRLSCAASGFTFFPNAMGWYRQAPGKERELFAAISRSDDNTFYADSVKGRITISRDNAKNTVYLQMNSLKPEDTAVYYCDKSAVPWRYPRGYDYWGQGTQVTVSS	low polyreactivity
QVQLVESGGGLVQAGGSLRLSCAASGFTFFRYAMGWYRQAPGKERDLVAAITSGGGRTYYADSVKGRFTISRYNAKNTVYLQMNRLKPEDTAVYYCNAVRRVDMYYWGLGTQVTVSS	high polyreactivity
QVQLVESGGGLVQAGGSLRLSCAASGFTFFVNTMGWYRQAPGKERELVAAISYDGGSTTYADSVKGRFTISRDNAKNTVYLQMNSLKPEDTAVYYCAAEYWAPFDYGTNSGYEYWGQGTQVTVSS	low polyreactivity
QVQLVESGGGLVQAGGSLRLSCAASGFTFFWNAMGWSRQAPGKERELVAVITFRGGDTYYADSVKGRFTISRDNAKNTVYLQMNSLKPEDTAVYYCNADWQSYGYLWHSSLYYYWGQGTQVTVSS	low polyreactivity
QVQLVESGGGLVQAGGSLRLSCAASGFTFFYNAMGWYRPAPGKERELGAVITWNGGTTYYADSVKGRFTISRDNAKNTVYLQMNSLKTEDTAVYYCNADGLILYDYWGQGTQVTVSS	low polyreactivity
QVQLVESGGGLVQAGGSLRLSCAASGFTFFYYAIRWYRQAPGKEREVVAAISSNGGRTYYADSVKGRFTISRDNAKNTVYLQMYSLKPEDTAVYYCTALRYVVYFDDDYWGQGTQVTVSS	high polyreactivity
QVQLVESGGGLVQAGGSLRLSCAASGFTFFYYAMGWYRKAPGKERELVARISSSGGRTYYSDSVKGRFTISRDNAKNTVYLQMNSLKPEDTAVYYCNARYYYYYTRYDYWGQGTQVTVSS	high polyreactivity
QVQLVESGGGLVQAGGSLRLSCAASGFTFGANVMGWYRQAPGKERELVAAINTRGSRTYYADSVKGRFTISRDHAKNTVYLQMNRLKQEDTAVYYCAAALRKEYDYWGQGTQVTVSS	high polyreactivity
QVQLVESGGGLVQAGGSLRLSCAASGFTFGDYAMGWYRQAPGKERELVAAISWSGGRTSYADSVKGRFTISRDNAKNTVYLQMNSLKPEDTAVYYCAARYRYAYTSFPFYYWGQGTQVTVSS	high polyreactivity
QVQLVESGGGLVQAGGSLRLSCAASGFTFGDYAMGWYRQAPGKERELVAVISSGGSTYYADSVKGRFTISRDNAKNTVYLQMNSLKPEDTAVYYCAKYVFRVWYHVFEVDYWGQGTQVTVSS	low polyreactivity
QVQLVESGGGLVQAGGSLRLSCAASGFTFGENAMGWYRQAPGKERELVATISDSGDSTYYADSVKGRFTISRDNAKNTVYLQMNSLKPEDTAVYYCAAPLPHRGYDEGYWGQGTQVTVSS	low polyreactivity
QVQLVESGGGLVQAGGSLRLSCAASGFTFGEYAMGWYRQEPGKERELVATISSGVGTNYADSVKGRFTISRDNAKNTVYLQMNSLKPVDTAVYYCNARGRGSDVRVYVDEGDYWGQGTQVTVSS	low polyreactivity
QVQLVESGGGLVQAGGSLRLSCAASGFTFGFYAMGWYRQAPGKERELVASITTRGGSTRYADSVKGRFTISRDNAKNTVYLQMNSLKPEDTAVYYCAAQYSYVRYLKRGYGYWGQGTQVTVSS	high polyreactivity
QVQLVESGGGLVQAGGSLRLSCAASGFTFGGNAMGWYRQAPGKERELVAAISGRGGRTFYADSVKGRFTISRDNAKNTVYLQMNSLKPEDTGVYYCAAYYRYDVGAYDYWGQGTQVTVSS	high polyreactivity
QVQLVESGGGLVQAGGSLRLSCAASGFTFGGNPMGWYRQAPGKERELVAAIRRGGSTYYADSVKGRFTISRDNAKNTVYLQMNSLKPEDTAVYYCAAAIPGKYSNDDWGQGTQVTVSS	high polyreactivity
QVQLVESGGGLVQAGGSLRLSCAASGFTFGGYAMGWYRQAPGKERELVAAIDSSGGRTYYADSVKGRFTISRDNAKNTVYLQMNSLKPEDTAVYYCNAGNSGWWRYDYDYWGQGTQVTVSS	high polyreactivity
